Assay: soluble on expression in E. coli; label from the status in PepcDB or PDB records

Soluble on expression in E. coli, not soluble:
MGSDKIHHHHHHMAELQEVQITEEKPLLPGQTPETAKEAELAARILLDQGQTHSVETPYGSVTFTVYGTPKPKRPAIFTYHDVGLNYKSCFQPLFRFGDMQEIIQNFVRVHVDAPGMEEGAPVFPLGYQYPSLDQLADMIPCILQYLNFSTIIGVGVGAGAYILSRYALNHPDTVEGLVLINIDPNAKGWMDWAAHKLTGLTSSIPDMILGHLFSQEELSGNSELIQKYRGIIQHAPNLENIELYWNSYNNRRDLNFERGGETTLKCPVMLVVGDQAPHEDAVVECNSKLDPTQTSFLKMADSGGQPQLTQPGKLTEAFKYFLQG
MGSDKIHHHHHHMAEQENSKDLISVLWSGADVLRSKMDANEYKNYLLGIVFYKYLSDSFLIRVYDLINDEKPESLKVALEAYKNELKGEYANDLLDELKQDRKYVIEPELTYTCFAEDARNNCFNREQLQKAFNNIEQSGELFVDLFSDIDLYSSRLGAGDQKQSDTIAELIKVIDQADLLNSDGEILGDAYEYLIGQFASETGKKAGEFYTPQAVSKILTRIAITGQENVKGLSIYDPCMGSGSLLLNAKRYYKGDTNYIKYYGQELNMSTYNLARMNMFLHDVAAENQNLHHGDTLDADWPTGEETDFHMVLMNPPYSAKWSAASGFLQDERFSEYGVLAPKSKADYAFLLHGLYHLKSNGTMAIVLPHGVLFRGAAEGKIREKLLRSGNIYAVIGLPANLFYNTSIPTCIVVLKKHRDGRDVLFIDASKKFIKGKKQNEMSDEHIDEVMDLYNRRETVDKESYLASFDDIEKNDFNLNIPRYVDNFEKEEEVDINGLLEDMQKTDDEIGKVEGEFVNLLKDLTSSDENIMASLNRYIDMIEG
MGSDKIHHHHHHMAERVLVPTQIGRGDRYYTYTELLAISRRFKQNPNELMVTWILRVYDQGGPALSLNSGELGLLGDLTHDAIFNYRCKALRGAGCQTLLSWLLQAWRQRWESSLHFEATELPFRPWTTMEEGIQLVRELGMIEWIYLDPEGPVDLAPEDVAFTQGLQRRLLTAAPSELRLSLVSLLVRGMTVLEAVMEIQTIADVGLLWRQSHPGRTKLMLGPNPTRKDLLGWLLSHGVPREQVDRQPTKVLLELYIKEAKRSRGHPNYGLNEEQPPPPPYSDQACGEEQPVRHD
MGSDKIHHHHHHMAETIETMGGQAALDHVSRLLSLKVDIRGLEHLPAEGRVVIVANHPTGIGDGVAVYDALKTHRPDIVFYANADAHRVCPRFDDVLIPVEWVEEKRSRERMRLTLSMTREAMEAERALMIFPAGRLAVTDAEGRLSDPPWMSSAVSIARKYGAPIAPIHLEGPWSTLFHLFGRLSRELRDITLFHELLNKTGRRFSLTIGPPVDPEALPRDAEQATEVLKRYVERQLPNEPTSPLT
MGSDKIHHHHHHMAFFGYKDIDKLSGVDLAIYRFIVEHDEQIPYMRVRELARGAHVSNSSVMRFIRKIGYDSFPEFKVSLRSETPIQKPDAPGIQFVQPSAFPADITKIIRLAAQLMVNADNIVFVGIGASAALGEYASRQTSSLGFNSYVVKDPFYPLLPQLRNTSNNVLVAVSVSGQTSELVEMLNDFVNNPEVNIISITSNLESTIARMSRYALTYRATEERIHQYYDLTSQVPCLYIIEALLRELRHQEVVQHRFE
MGSDKIHHHHHHMAFLDVKGIRKTFPGVVALDGVDLEIELGAVHVLAGENGAGKSTLIRALTGLLPLDGGSIHIDGRDALTDRSAFDLVAYVPQELSLFPHMSVAENLFMPFAKAGFGGRVLPYAEMNRQAGAILERFSIKARPEQKVKSIAVSDQQLLQIARATTNKRLKVLILDEPTSSLTTQEIDRLFRILRQFRDNGTAIVFVSHKMEEIFELGTTVTVLRNGKTVGHRPMAAVSEPELIRLMSGDEVQLDQLFQPACAPGETIVTVDGLCGQGFHDISFALRRGEILGFAGLVGAGRSEVMQSMFGFKKPTGGTVLLKGRPLKLGKPSAAVEAGMLYLSEERRLHGILPVLSLRENIGISVLDQTSRGGVISTARERGVVGEVIASYDIKASSPEKKIMFLSGGNQQKAIIGRAMARKPDVLIFDEPTRGIDIRNKVEIYKIMKRLAEDGVAIILVSSEMAELKRCASRIITMYSGKLSGEFATATTDTHTLVGAIIGSAQSGQPPAGAPSPVADLETGARCHVL
MGSDKIHHHHHHMAGDIIVRNKFCDISKVRFRKWDEIDVIFWKFGKSNPERKSGGYYLNAYKDAYIQYNKERIIKYANQAGILPELLGGVAWIESGGMPEEYKFQVFEIKRFLKLKSSPENKTSFGSVAMQIQVAARTLGLNPDILTTRDQLELATCLMEDDFNLWIVAQHLRDMILYDYPSVAALYLTDEQYMMAGIRYNRGIQRKLSEFIRFIDAKPERGSAEFDYISYGVRLLQIRNHIRKLLELNT
MGSDKIHHHHHHMAGSLIERTLRVLETLSSEPDGIPLQRLAERLEIPKSAAHRICNELGRQGYVRQETRTGHYRLSTRLIALGFRYLGSTGASDVLQPILDRLADETGELVRLGVIEGDRQTWIAKAQGTRTGLRYDPDMGREAPLRYTASGQAWLASLDDQAALALLERQGHHNPEHFGPNAPRTDYELLDRLALARERGYTCCVDSSALGTSAFGAVIRHPMQGHTIGVISVAGPSVRLTEDRMHELAPKLLQAVEELSQCSQASQLFSE
MGSDKIHHHHHHMAIQQLEKPEHAGRRTAPEITVSGIGKRYGATPVLMDVTLSVTPGEIHGIMGENGAGKSTLLKILGGAIMADSGTMELDGNPVRITTPRDAISQGISLISQELALIPNLSVLENVFLGRWSNRGSLLRPTKDGDHFARLLEETGFDLDPRATVGNLPIGQQQQVEILKALARGAKVLCMDEPTAVLNEAEKEKLLQVIKRLAQTGTTILIVSHYLEEVLELVDRVTILRDGQHIVTEDAAGHTPESLVRLMVGRDVDFLLPEIRQVQSQADTVLRVVGLTSAKVKEISFQVRRGEILGIAGLVGSGRSETLLAVFGADRTTGGHVEVNGRRIRASSIRDAIKAGIALIPESRKEQGLVMSRPASENIALSTLSGRSWAGFVSARREKAAVKDVSRSVDLRGARPGQPIANLSGGNQQKALFAKWLLDPPAVLLVDEPTRGVDIAAKARIHSIIAELAAKGTAVIVVSSELEEVLGLSHRIHVMRHGRIVAEFDRNASRDEVMTSAFLK
MGSDKIHHHHHHMAISRLLVEKFRNLTAVDLDFDPCFNFLIGNNGSGKTSLLEAIFYLGHGRSFKSAVTNRIISYDEPHFTLFGQIQESQHQWSIGLQKLRQGNTLVKINGEDGNKISDLAHLLPMQLITPEGLTLLNGGPSYRRAFLDWGLFHHQTSFYSAWSNLNRLLKQRNAALAQNQPYSAIKIWDVELAKLAHQVSEWRAEYAEALSPEIEQTCQLFLPELEINVSFHQGWEKNADYYEILQQNFERDRALNYTFSGPQKADFRFKAQGLPVEDVLSRGQLKLLMCALRLAQGEHLMKEKQRHCIFLIDDFASELDQYKRALLAERLQQSGSQVFVTAITQRQLKEMQVENKKMFSVHNGIINALN
MGSDKIHHHHHHMAIYLEMPKLIHEFPFRSLSNEGEVLTTPHWHKEIEILLITEGVVNLFINDKPMQLKKGEIVIIKGGDIHYILPSPGSERLVFQFDISFFNDLILLNEEKESLINLFSSIKKCSRDWSAKIRKSVFDILIDIYNEDLYKIEGYSYAIKGKMYNLIPILYRQIPREIEENTVEYEINSKEILERLNNIFKYVEKNYKQPIKLEDVSYEVGFSVYYFTKFFKKNTGKTFITFLNEYRLEKAKWILLNNNISIVDLVEEVGFGSTKTFYRVFKEKIGVSPLEFKKRYNSLEKKGSVSK
MGSDKIHHHHHHMAKFQSYVICTSPRSGSTLLCNMLAATGVAGKPKSYFHHGSITDWLSYLNLDINPSLPESDLLAAIFEAAVETGRNGTGLFGLRLQRHSFDLFVEKLAVLYPTLASDRQRIEAAFGSTLFIHLTRLDKVQQAVSYVKAQQTGLWHRAPDGTELERLSAPRDPIYDAAKIHASYDEFIQYDRAWQSWFDMQGIQPLRITYEALCADPIASLKDVLVQLGVNGEAASSVVPGTAKLADGINQSWETRFRTEHLHSDPL

— the DeepSol protein solubility set
